B1: fibrinogen (ligand)
chain 1: ADSGEGDFLAEGGGVRGPRVVERHQSACKDSDWPFCSDEDWNYKCPSGCRMKGLIDEVNQDFTNRINKLKNSLFEYQKNNKDSHSLTTNIMEILRGDFSSANNRDNTYNRVSEDLRSRIEVLKRKVIEKVQHIQLLQKNVRAQLVDMKRLEVDIDIKIRSCRGSCSRALAREVDLKDYEDQQKQLEQVIAKDLLPSRDRQHLPLIKMKPVPDLVPGNFKSQLQKVPPEWKALTDMPQMRMELERPGGNEITRGGSTSYGTGSETESPRNPSSAGSWNSGSSGPGSTGNRNPGSSGTGGTATWKPGSSGPGSTGSWNSGSSGTGSTGNQNPGSPRPGSTGTWNPGSSERGSAGHWTSESSVSGSTGQWHSESGSFRPDSPGSGNARPNNPDWGTFEEVSGNVSPGTRREYHTEKLVTSKGDKELRTGKEKVTSGSTTTTRRSCSKTVTKTVIGPDGHKEVTKEVVTSEDGSDCPEAMDLGTLSGIGTLDGFRHRHPDEAAFFDTASTGKTFPGFFSPMLGEFVSETESRGSESGIFTNTKESSSHHPGIAEFPSRGKSSSYSKQFTSSTSYNRGDSTFESKSYKMADEAGSEADHEGTHSTKRGHAKSRPV
chain 2: QGVNDNEEGFFSARGHRPLDKKREEAPSLRPAPPPISGGGYRARPAKAAATQKKVERKAPDAGGCLHADPDLGVLCPTGCQLQEALLQQERPIRNSVDELNNNVEAVSQTSSSSFQYMYLLKDLWQKRQKQVKDNENVVNEYSSELEKHQLYIDETVNSNIPTNLRVLRSILENLRSKIQKLESDVSAQMEYCRTPCTVSCNIPVVSGKECEEIIRKGGETSEMYLIQPDSSVKPYRVYCDMNTENGGWTVIQNRQDGSVDFGRKWDPYKQGFGNVATNTDGKNYCGLPGEYWLGNDKISQLTRMGPTELLIEMEDWKGDKVKAHYGGFTVQNEANKYQISVNKYRGTAGNALMDGASQLMGENRTMTIHNGMFFSTYDRDNDGWLTSDPRKQCSKEDGGGWWYNRCHAANPNGRYYWGGQYTWDMAKHGTDDGVVWMNWKGSWYSMRKMSMKIRPFFPQQ
chain 3: YVATRDNCCILDERFGSYCPTTCGIADFLSTYQTKVDKDLQSLEDILHQVENKTSEVKQLIKAIQLTYNPDESSKPNMIDAATLKSRKMLEEIMKYEASILTHDSSIRYLQEIYNSNNQKIVNLKEKVAQLEAQCQEPCKDTVQIHDITGKDCQDIANKGAKQSGLYFIKPLKANQQFLVYCEIDGSGNGWTVFQKRLDGSVDFKKNWIQYKEGFGHLSPTGTTEFWLGNEKIHLISTQSAIPYALRVELEDWNGRTSTADYAMFKVGPEADKYRLTYAYFAGGDAGDAFDGFDFGDDPSDKFFTSHNGMQFSTWDNDNDKFEGNCAEQDGSGWWMNKCHAGHLNGVYYQGGTYSKASTPNGYDNGIIWATWKTRWYSMKKTTMKIIPFNRLTIGEGQQHHLGGAKQAGDV
modifications: Alexa488 label in the Table 2 assay
notes: Native ligand of αIIbβ3; also called Alexa488 labelled fibrinogen; Alexa 488 - Fibrinogen

What was measured:
[1] = biological target: Activated αIIbβ3 (recombinant human ectodomain αIIbβ3 on DETA beads after incubation in activation buffer with CaCl2, MnCl2 and MgCl2) (human) (UniProt P08514); assay: flow cytometry, 50 nM FITC-PAC-1 on activated αIIbβ3 beads, n ≥ 3
Activated αIIbβ3 (recombinant human ectodomain αIIbβ3 on DETA beads after incubation in activation buffer with CaCl2, MnCl2 and MgCl2) (human), sequence (P08514 other isoform, or with tags, fused parts or gaps limits assumed, chain 1 of 2): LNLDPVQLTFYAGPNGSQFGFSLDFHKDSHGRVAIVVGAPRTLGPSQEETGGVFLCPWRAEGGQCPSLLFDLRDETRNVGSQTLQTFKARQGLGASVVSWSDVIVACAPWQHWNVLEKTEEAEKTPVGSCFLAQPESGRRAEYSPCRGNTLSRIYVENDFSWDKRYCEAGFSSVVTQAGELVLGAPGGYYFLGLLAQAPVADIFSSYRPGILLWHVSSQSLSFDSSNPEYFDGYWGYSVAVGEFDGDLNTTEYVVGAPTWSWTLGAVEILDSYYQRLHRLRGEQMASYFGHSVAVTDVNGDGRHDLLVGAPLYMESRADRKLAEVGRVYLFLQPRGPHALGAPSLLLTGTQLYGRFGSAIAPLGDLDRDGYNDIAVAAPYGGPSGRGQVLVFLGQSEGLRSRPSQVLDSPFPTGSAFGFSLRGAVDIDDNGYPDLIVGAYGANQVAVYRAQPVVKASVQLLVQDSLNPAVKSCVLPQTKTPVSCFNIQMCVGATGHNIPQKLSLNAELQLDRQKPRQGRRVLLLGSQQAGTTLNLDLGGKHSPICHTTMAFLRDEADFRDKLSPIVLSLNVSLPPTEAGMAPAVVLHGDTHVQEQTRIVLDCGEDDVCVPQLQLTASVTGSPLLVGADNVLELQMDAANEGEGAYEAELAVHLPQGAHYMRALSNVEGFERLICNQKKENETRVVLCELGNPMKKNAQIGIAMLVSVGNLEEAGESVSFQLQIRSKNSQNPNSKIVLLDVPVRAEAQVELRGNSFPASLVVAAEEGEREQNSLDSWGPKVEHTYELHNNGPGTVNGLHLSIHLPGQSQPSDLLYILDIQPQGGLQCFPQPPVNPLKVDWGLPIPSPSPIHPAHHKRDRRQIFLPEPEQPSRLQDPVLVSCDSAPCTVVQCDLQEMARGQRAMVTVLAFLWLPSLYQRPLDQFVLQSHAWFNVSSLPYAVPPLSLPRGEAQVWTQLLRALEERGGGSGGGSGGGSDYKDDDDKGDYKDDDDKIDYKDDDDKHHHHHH
Activated αIIbβ3 (recombinant human ectodomain αIIbβ3 on DETA beads after incubation in activation buffer with CaCl2, MnCl2 and MgCl2) (human), sequence (chain, as listed by the source limits assumed, chain 2 of 2): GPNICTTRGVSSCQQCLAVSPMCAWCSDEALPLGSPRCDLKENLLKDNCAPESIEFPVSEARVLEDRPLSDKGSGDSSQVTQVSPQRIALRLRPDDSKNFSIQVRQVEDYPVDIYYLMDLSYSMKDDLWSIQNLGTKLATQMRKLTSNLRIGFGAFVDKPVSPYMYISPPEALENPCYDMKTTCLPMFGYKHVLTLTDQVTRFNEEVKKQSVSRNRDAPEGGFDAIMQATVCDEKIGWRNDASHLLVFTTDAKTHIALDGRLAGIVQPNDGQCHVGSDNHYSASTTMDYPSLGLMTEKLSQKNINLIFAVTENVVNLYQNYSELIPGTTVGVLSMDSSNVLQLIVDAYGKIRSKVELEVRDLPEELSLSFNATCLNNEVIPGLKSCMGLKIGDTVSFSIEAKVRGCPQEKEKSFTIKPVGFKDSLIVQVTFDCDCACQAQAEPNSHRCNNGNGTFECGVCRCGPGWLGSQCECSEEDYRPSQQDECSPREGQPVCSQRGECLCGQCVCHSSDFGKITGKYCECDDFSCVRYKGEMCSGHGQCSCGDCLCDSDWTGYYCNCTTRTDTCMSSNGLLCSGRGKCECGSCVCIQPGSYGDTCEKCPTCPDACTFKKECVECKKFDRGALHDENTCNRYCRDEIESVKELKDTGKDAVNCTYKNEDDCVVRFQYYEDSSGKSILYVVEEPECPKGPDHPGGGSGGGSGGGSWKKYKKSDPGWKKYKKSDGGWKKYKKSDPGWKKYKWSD

[2] = biological target: Inactive αIIbβ3 (recombinant human ectodomain αIIbβ3 on DETA beads before activation) (human) (UniProt P08514); assay: flow cytometry, 50 nM FITC-PAC-1 on inactive αIIbβ3 beads, n ≥ 3
Inactive αIIbβ3 (recombinant human ectodomain αIIbβ3 on DETA beads before activation) (human), sequence (P08514 other isoform, or with tags, fused parts or gaps limits assumed, chain 1 of 2): as the sequence (P08514 other isoform, or with tags, fused parts or gaps limits assumed, chain 1 of 2) above
Inactive αIIbβ3 (recombinant human ectodomain αIIbβ3 on DETA beads before activation) (human), sequence (chain, as listed by the source limits assumed, chain 2 of 2): as the sequence (chain, as listed by the source limits assumed, chain 2 of 2) above

[3] = biological target: T1, recombinant human ectodomain αIIbβ3 immobilized on a surface (activation state not stated at the place of the … (human, UniProt P08514 32-993; P05106 27-718); assay: flow cytometry sandwich assay, fibrinogen dose response on αIIbβ3 coupled beads, FITC labelled detection antibody, no blocking step
T1 construct: also called αIIbβ3 coupled beads; αIIbβ3 coated beads
T1 sequence (P08514 other isoform, or with tags, fused parts or gaps limits assumed, chain 1 of 2): as the sequence (P08514 other isoform, or with tags, fused parts or gaps limits assumed, chain 1 of 2) above
T1 sequence (P05106 other isoform, or with tags, fused parts or gaps limits assumed, chain 2 of 2): as the sequence (chain, as listed by the source limits assumed, chain 2 of 2) above
Excerpt: To evaluate the analytical potential of these αIIbβ3 coupled molecular probes, a flow cytometry sandwich assay was developed. […] The same primary antibody was used for both assays, however, the detection antibody for ELISA was HRP labelled and for flow cytometry was FITC labelled. The fibrinogen does response curves are depicted in the inserts of each of FIGS. 5A and 5B. […] The flow cytometry based assay produced a significant increase in performance compared to ELISA, even though a blocking step and a signal amplification-based detection strategy were employed in ELISA. It was postulated that the significant increase in performance observed is due to the SAM and the immobilization strategy which promotes the high-affinity ligand binding conformation of the integrin.

[4] = biological target: T1, recombinant human ectodomain αIIbβ3 …; assay: sandwich ELISA, fibrinogen dose response on plate-immobilized αIIbβ3, HRP labelled detection antibody
Experimental: Fibrinogen ELISA Assay. To ensure similar immobilization levels of recombinant human ectodomain αIIbβ3 between the ELISA plate and integrin coupled magnetic beads, the wells of a 96-well micro plate (Nunc MaxiSorp) were incubated with the same αIIbβ3 concentration per surface area as during the preparation of the magnetic beads, 6.6×10⁴ μg·mL⁻¹·cm⁻². Each well was coated with αIIbβ3 or control proteins (BSA and β3−/− platelet lysate) by incubation of 6 μg/μL protein in binding buffer (TRIS buffered saline with 0.05% TWEEN-20 and 1 mM each of MgCl₂, MnCl₂ and CaCl₂) at 4° C. overnight. Incubation of 3% skim milk (ED Millipore) and 2% TWEEN-20 for 1 hour at 37° C. was used for blocking. The concentration of αIIbβ3 per surface area of bead used when coating SAM coated beads is 6.6×10⁴ μg·mL⁻¹·cm⁻², therefore the wells of 96 well plates used were coated with the same density EDC/NHS quenching achieved by increase pH to 8.6. Bead concentration for synthesis: 6×10⁹ beads·mL⁻¹; Integrin-bead reaction concentration=250 μg·mL⁻¹; Integrin Used=6.6×10⁴ μg·mL⁻¹·cm⁻²; Well Surface Area (50 μL)=0.93 cm²; Concentration/wee for ELISA=6×10⁴ μg·mL⁻¹ (6 μL/well in 50 μL total volume); Stock [αIIbβ3]=5×10⁵ μg·mL⁻¹.
To evaluate the analytical potential of these αIIbβ3 coupled molecular probes, a flow cytometry sandwich assay was developed. […]

| Molecule | Mean Fluorescence Intensity (MFI) [1] | Mean Fluorescence Intensity (MFI) [2] | Kd [3] | Kd [4] |
| --- | --- | --- | --- | --- |
| PAC-1 (antibody) | 942 MFI | 212 MFI | – | – |
| B1 | – | – | 210 nM | 2200 nM |

From patent publication US20230194519A1 (CCOA THERAPEUTICS, published 2023)
